Data reported in patent US20140087995A1 (published 2014).
Numbered stars: 1 amine (or outer) side, 2 acyl side, 3 side chain; on linkers, the order of the positions; unused ones are H or OH. Bridge positions count the residues as written; N and C are the ends. Side chains are listed from the residue outwards. Ends that are not written are not given here. * marks the point of attachment. C20 diacid = O=C(O)CCCCCCCCCCCCCCCCCCC(=O)*; γGlu = O=C(O)[C@H](CCC(=O)[*:2])N[*:1]; AEEA = NCCOCCOCC(=O)O

T1: human amylin receptor (human, UniProt P30988 25-474; O60896 24-148, limits assumed)
T1 construct: whole, on cells; Calcitonin receptor plus RAMP-3 gives the amylin 3(a) receptor; membranes of Amylin 3(a)/CRE-luc cells were used; also called hAmylin-R; hAmylinR
T1 sequence (looked up) 1: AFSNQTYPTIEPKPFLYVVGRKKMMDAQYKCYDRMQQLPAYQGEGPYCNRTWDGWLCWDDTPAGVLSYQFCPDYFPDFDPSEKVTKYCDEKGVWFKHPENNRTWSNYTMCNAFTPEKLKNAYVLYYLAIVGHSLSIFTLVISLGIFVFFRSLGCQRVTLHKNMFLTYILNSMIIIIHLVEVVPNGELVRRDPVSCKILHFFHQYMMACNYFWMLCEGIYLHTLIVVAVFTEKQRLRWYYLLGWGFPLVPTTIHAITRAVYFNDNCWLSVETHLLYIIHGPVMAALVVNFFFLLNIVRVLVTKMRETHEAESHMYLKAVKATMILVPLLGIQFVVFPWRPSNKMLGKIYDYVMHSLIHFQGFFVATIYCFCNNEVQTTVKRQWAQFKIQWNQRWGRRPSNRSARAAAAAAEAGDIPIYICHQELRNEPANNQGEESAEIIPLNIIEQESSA
T1 sequence (looked up) 2: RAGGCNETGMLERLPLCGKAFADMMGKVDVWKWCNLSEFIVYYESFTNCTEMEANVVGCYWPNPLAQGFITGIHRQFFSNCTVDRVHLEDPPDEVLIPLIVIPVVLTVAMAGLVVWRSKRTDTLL

B1: N^ε1-[2-[2-[2-[[(4S)-4-carboxy-4-(19-carboxynonadecanoylamino)butanoyl]amino]ethoxy]ethoxy]acetyl]-[Arg14,Arg17,Pro21,Pro27]-h-amylin (peptide)
peptide: K([AEEA-γGlu-C20 diacid])CNTATCATQRLARFLRHSSPNFGAIPSSTNVGSNTY-NH2
modifications: disulfide 2-7; N-terminus assumed
SMILES: CC[C@H](C)[C@H](NC(=O)[C@H](C)NC(=O)CNC(=O)[C@H](Cc1ccccc1)NC(=O)[C@H](CC(N)=O)NC(=O)[C@@H]1CCCN1C(=O)[C@H](CO)NC(=O)[C@H](CO)NC(=O)[C@H](Cc1c[nH]cn1)NC(=O)[C@H](CCCNC(=N)N)NC(=O)[C@H](CC(C)C)NC(=O)[C@H](Cc1ccccc1)NC(=O)[C@H](CCCNC(=N)N)NC(=O)[C@H](C)NC(=O)[C@H](CC(C)C)NC(=O)[C@H](CCCNC(=N)N)NC(=O)[C@H](CCC(N)=O)NC(=O)[C@@H](NC(=O)[C@H](C)NC(=O)[C@@H]1CSSC[C@H](NC(=O)[C@@H](N)CCCCNC(=O)COCCOCCNC(=O)CC[C@H](NC(=O)CCCCCCCCCCCCCCCCCCC(=O)O)C(=O)O)C(=O)N[C@@H](CC(N)=O)C(=O)N[C@@H]([C@@H](C)O)C(=O)N[C@@H](C)C(=O)N[C@@H]([C@@H](C)O)C(=O)N1)[C@@H](C)O)C(=O)N1CCC[C@H]1C(=O)N[C@@H](CO)C(=O)N[C@@H](CO)C(=O)N[C@H](C(=O)N[C@@H](CC(N)=O)C(=O)N[C@H](C(=O)NCC(=O)N[C@@H](CO)C(=O)N[C@@H](CC(N)=O)C(=O)N[C@H](C(=O)N[C@@H](Cc1ccc(O)cc1)C(N)=O)[C@@H](C)O)C(C)C)[C@@H](C)O
notes: also called 14R, 17R, 21P, 27P
B2: N^ε1-[2-[2-[2-[[(4S)-4-carboxy-4-(19-carboxynonadecanoylamino)butanoyl]amino]ethoxy]ethoxy]acetyl]-[Arg17,Pro21,Pro27,Arg34]-h-amylin (peptide)
peptide: K([AEEA-γGlu-C20 diacid])CNTATCATQRLANFLRHSSPNFGAIPSSTNVGRNTY-NH2
modifications: disulfide 2-7; N-terminus assumed
SMILES: CC[C@H](C)[C@H](NC(=O)[C@H](C)NC(=O)CNC(=O)[C@H](Cc1ccccc1)NC(=O)[C@H](CC(N)=O)NC(=O)[C@@H]1CCCN1C(=O)[C@H](CO)NC(=O)[C@H](CO)NC(=O)[C@H](Cc1c[nH]cn1)NC(=O)[C@H](CCCNC(=N)N)NC(=O)[C@H](CC(C)C)NC(=O)[C@H](Cc1ccccc1)NC(=O)[C@H](CC(N)=O)NC(=O)[C@H](C)NC(=O)[C@H](CC(C)C)NC(=O)[C@H](CCCNC(=N)N)NC(=O)[C@H](CCC(N)=O)NC(=O)[C@@H](NC(=O)[C@H](C)NC(=O)[C@@H]1CSSC[C@H](NC(=O)[C@@H](N)CCCCNC(=O)COCCOCCNC(=O)CC[C@H](NC(=O)CCCCCCCCCCCCCCCCCCC(=O)O)C(=O)O)C(=O)N[C@@H](CC(N)=O)C(=O)N[C@@H]([C@@H](C)O)C(=O)N[C@@H](C)C(=O)N[C@@H]([C@@H](C)O)C(=O)N1)[C@@H](C)O)C(=O)N1CCC[C@H]1C(=O)N[C@@H](CO)C(=O)N[C@@H](CO)C(=O)N[C@H](C(=O)N[C@@H](CC(N)=O)C(=O)N[C@H](C(=O)NCC(=O)N[C@@H](CCCNC(=N)N)C(=O)N[C@@H](CC(N)=O)C(=O)N[C@H](C(=O)N[C@@H](Cc1ccc(O)cc1)C(N)=O)[C@@H](C)O)C(C)C)[C@@H](C)O
notes: also called 17R, 21P, 27P, 34R
B3: N^ε1-[2-[2-[2-[[(4S)-4-carboxy-4-(19-carboxynonadecanoylamino)butanoyl]amino]ethoxy]ethoxy]acetyl]-[Arg17,Pro21,Pro27,His34]-h-amylin (peptide)
peptide: K([AEEA-γGlu-C20 diacid])CNTATCATQRLANFLRHSSPNFGAIPSSTNVGHNTY-NH2
modifications: disulfide 2-7; N-terminus assumed
SMILES: CC[C@H](C)[C@H](NC(=O)[C@H](C)NC(=O)CNC(=O)[C@H](Cc1ccccc1)NC(=O)[C@H](CC(N)=O)NC(=O)[C@@H]1CCCN1C(=O)[C@H](CO)NC(=O)[C@H](CO)NC(=O)[C@H](Cc1c[nH]cn1)NC(=O)[C@H](CCCNC(=N)N)NC(=O)[C@H](CC(C)C)NC(=O)[C@H](Cc1ccccc1)NC(=O)[C@H](CC(N)=O)NC(=O)[C@H](C)NC(=O)[C@H](CC(C)C)NC(=O)[C@H](CCCNC(=N)N)NC(=O)[C@H](CCC(N)=O)NC(=O)[C@@H](NC(=O)[C@H](C)NC(=O)[C@@H]1CSSC[C@H](NC(=O)[C@@H](N)CCCCNC(=O)COCCOCCNC(=O)CC[C@H](NC(=O)CCCCCCCCCCCCCCCCCCC(=O)O)C(=O)O)C(=O)N[C@@H](CC(N)=O)C(=O)N[C@@H]([C@@H](C)O)C(=O)N[C@@H](C)C(=O)N[C@@H]([C@@H](C)O)C(=O)N1)[C@@H](C)O)C(=O)N1CCC[C@H]1C(=O)N[C@@H](CO)C(=O)N[C@@H](CO)C(=O)N[C@H](C(=O)N[C@@H](CC(N)=O)C(=O)N[C@H](C(=O)NCC(=O)N[C@@H](Cc1c[nH]cn1)C(=O)N[C@@H](CC(N)=O)C(=O)N[C@H](C(=O)N[C@@H](Cc1ccc(O)cc1)C(N)=O)[C@@H](C)O)C(C)C)[C@@H](C)O
notes: also called 17R, 21P, 27P, 34H
B4: N^ε1-[2-[2-[2-[[(4S)-4-carboxy-4-(19-carboxynonadecanoylamino)butanoyl]amino]ethoxy]ethoxy]acetyl]-[Arg17,Pro21,Pro27,Pro28,Pro31]-h-amylin (peptide)
peptide: K([AEEA-γGlu-C20 diacid])CNTATCATQRLANFLRHSSPNFGAIPPSTPVGSNTY-NH2
modifications: disulfide 2-7
notes: also called 17R, 21P, 27P, 28P, 31P
B5: N^ε1-[2-[2-[2-[[(4S)-4-carboxy-4-(19-carboxynonadecanoylamino)butanoyl]amino]ethoxy]ethoxy]acetyl]-[Arg17,Pro21,Pro27,Glu35]-h-amylin (peptide)
peptide: K([AEEA-γGlu-C20 diacid])CNTATCATQRLANFLRHSSPNFGAIPSSTNVGSETY-NH2
modifications: disulfide 2-7; N-terminus assumed
SMILES: CC[C@H](C)[C@H](NC(=O)[C@H](C)NC(=O)CNC(=O)[C@H](Cc1ccccc1)NC(=O)[C@H](CC(N)=O)NC(=O)[C@@H]1CCCN1C(=O)[C@H](CO)NC(=O)[C@H](CO)NC(=O)[C@H](Cc1c[nH]cn1)NC(=O)[C@H](CCCNC(=N)N)NC(=O)[C@H](CC(C)C)NC(=O)[C@H](Cc1ccccc1)NC(=O)[C@H](CC(N)=O)NC(=O)[C@H](C)NC(=O)[C@H](CC(C)C)NC(=O)[C@H](CCCNC(=N)N)NC(=O)[C@H](CCC(N)=O)NC(=O)[C@@H](NC(=O)[C@H](C)NC(=O)[C@@H]1CSSC[C@H](NC(=O)[C@@H](N)CCCCNC(=O)COCCOCCNC(=O)CC[C@H](NC(=O)CCCCCCCCCCCCCCCCCCC(=O)O)C(=O)O)C(=O)N[C@@H](CC(N)=O)C(=O)N[C@@H]([C@@H](C)O)C(=O)N[C@@H](C)C(=O)N[C@@H]([C@@H](C)O)C(=O)N1)[C@@H](C)O)C(=O)N1CCC[C@H]1C(=O)N[C@@H](CO)C(=O)N[C@@H](CO)C(=O)N[C@H](C(=O)N[C@@H](CC(N)=O)C(=O)N[C@H](C(=O)NCC(=O)N[C@@H](CO)C(=O)N[C@@H](CCC(=O)O)C(=O)N[C@H](C(=O)N[C@@H](Cc1ccc(O)cc1)C(N)=O)[C@@H](C)O)C(C)C)[C@@H](C)O
notes: also called 17R, 21P, 27P, 35E
B6: N^ε1-[2-[2-[2-[[(4S)-4-carboxy-4-(19-carboxynonadecanoylamino)butanoyl]amino]ethoxy]ethoxy]acetyl]-[Arg17,Pro21,Pro27,Arg35]-h-amylin (peptide)
peptide: K([AEEA-γGlu-C20 diacid])CNTATCATQRLANFLRHSSPNFGAIPSSTNVGSRTY-NH2
modifications: disulfide 2-7; N-terminus assumed
SMILES: CC[C@H](C)[C@H](NC(=O)[C@H](C)NC(=O)CNC(=O)[C@H](Cc1ccccc1)NC(=O)[C@H](CC(N)=O)NC(=O)[C@@H]1CCCN1C(=O)[C@H](CO)NC(=O)[C@H](CO)NC(=O)[C@H](Cc1c[nH]cn1)NC(=O)[C@H](CCCNC(=N)N)NC(=O)[C@H](CC(C)C)NC(=O)[C@H](Cc1ccccc1)NC(=O)[C@H](CC(N)=O)NC(=O)[C@H](C)NC(=O)[C@H](CC(C)C)NC(=O)[C@H](CCCNC(=N)N)NC(=O)[C@H](CCC(N)=O)NC(=O)[C@@H](NC(=O)[C@H](C)NC(=O)[C@@H]1CSSC[C@H](NC(=O)[C@@H](N)CCCCNC(=O)COCCOCCNC(=O)CC[C@H](NC(=O)CCCCCCCCCCCCCCCCCCC(=O)O)C(=O)O)C(=O)N[C@@H](CC(N)=O)C(=O)N[C@@H]([C@@H](C)O)C(=O)N[C@@H](C)C(=O)N[C@@H]([C@@H](C)O)C(=O)N1)[C@@H](C)O)C(=O)N1CCC[C@H]1C(=O)N[C@@H](CO)C(=O)N[C@@H](CO)C(=O)N[C@H](C(=O)N[C@@H](CC(N)=O)C(=O)N[C@H](C(=O)NCC(=O)N[C@@H](CO)C(=O)N[C@@H](CCCNC(=N)N)C(=O)N[C@H](C(=O)N[C@@H](Cc1ccc(O)cc1)C(N)=O)[C@@H](C)O)C(C)C)[C@@H](C)O
notes: also called 17R, 21P, 27P, 35R

Biological target: T1, human amylin receptor
Experiment: SPA competition binding, displacement of 125I-rat amylin from membranes with human amylin 3(a) receptor (Assay V)
How it was run: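 Cell membranes were prepared by homogenisation in Na-HEPES/EDTA buffer, pH 7.4, and stored at −80° C. They were then coupled to SPA beads at 35 ng/μL final and exposed to compounds in assay buffer containing CaCl2, MgCl₂, OA and Tween20. After 120 min at 25° C, plates were counted and IC₅₀ derived.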

| Binder | IC50 [nM] |
| --- | --- |
| B1 | 0.636 |
| B2 | 0.602 |
| B3 | 0.215 |
| B4 | 0.052 |
| B5 | 0.532 |
| B6 | 0.249 |
